Target: Taxol-stabilized microtubules (bovine brain tubulin) (bovine) (UniProt Q6B856)
Assay: TIRF microscopy of purified proteins on surface-bound microtubules (in vitro reconstitution); Taxol-stabilised biotinylated microtubules bound to NeutrAvidin coverslips; 100 nM CLASP2α-GFP or 100 nM GFP-L-TOG2-S with […] TRITC-phalloidin F-actin flowed in; imaging buffer with MRB80, Taxol, 0.2 mM ATP; 35°C; PCC after 10 min, time-lapse up to 40 min

His-CLASP2α-EGFP-Strep (natural protein)
Pearson correlation coefficient (PCC) of the CLASP2α-GFP and microtubule signals: 0.88
